From paper PMC4803301

Assays:
[1] = anti-myc blot of conditioned medium and lysate, HT1080; settings: glycan lost; control: wild type
[2] = time course of secreted Rspo1, anti-myc blot; settings: glycan lost; control: wild type
[3] = anti-myc blot of conditioned medium and lysate, HT1080-Rspo1-MH; settings: glycan lost; control: siCtrl

Protein	expression_or_secretion [1]	expression_or_secretion [2]	expression_or_secretion [3]
R-spondin1 (Rspo1): 2WA (protein) parent chain: MRLGLCVVALVLSWTHLTISSRGIKGKRQRRISAEGSQACAKGCELCSEVNGCLKCSPKLFILLERNDIRQVGVCLPSCPPGYFDARNPDMNKCIKCKIEHCEACFSHNFCTKCKEGLYLHKGRCYPACPEGSSAANGTMECSSPAQCEMSEWSPWGPCSKKQQLCGFRRGSEERTRRVLHAPVGDHAACSDTKETRRCTVRRVPCPEGQKRRKGGQGRRENANRNLARKESKEAGAGSRRRKGQQQQQQQGTVGPLTSAGPA	decreases	decreases	
R-spondin1 (Rspo1): siDPY19L3 (protein) parent chain: MRLGLCVVALVLSWTHLTISSRGIKGKRQRRISAEGSQACAKGCELCSEVNGCLKCSPKLFILLERNDIRQVGVCLPSCPPGYFDARNPDMNKCIKCKIEHCEACFSHNFCTKCKEGLYLHKGRCYPACPEGSSAANGTMECSSPAQCEMSEWSPWGPCSKKQQLCGFRRGSEERTRRVLHAPVGDHAACSDTKETRRCTVRRVPCPEGQKRRKGGQGRRENANRNLARKESKEAGAGSRRRKGQQQQQQQGTVGPLTSAGPA			decreases
R-spondin1 (Rspo1): siDPY19L3#2 (protein) parent chain: MRLGLCVVALVLSWTHLTISSRGIKGKRQRRISAEGSQACAKGCELCSEVNGCLKCSPKLFILLERNDIRQVGVCLPSCPPGYFDARNPDMNKCIKCKIEHCEACFSHNFCTKCKEGLYLHKGRCYPACPEGSSAANGTMECSSPAQCEMSEWSPWGPCSKKQQLCGFRRGSEERTRRVLHAPVGDHAACSDTKETRRCTVRRVPCPEGQKRRKGGQGRRENANRNLARKESKEAGAGSRRRKGQQQQQQQGTVGPLTSAGPA			decreases
